The values below come from paper PMC6777427, “Large-Scale Molecular Evolutionary Analysis Uncovers a Variety of Polynucleotide Kinase Clp1 Family Proteins in the Three Domains of Life” (Genome Biology and Evolution, 2019).

The data set has as its system T1, Nc1ncnc2c1ncn2[C@@H]1O[C@H](COP(=O)(O)OP(=O)(O)OP(=O)(O)O)[C@@H](O)[C@H]1O.
T1 construct: codon-optimised synthetic gene in pET-23b (NdeI/XhoI), C-terminal His6 tag kept, expressed in E. coli BL21(DE3), heat-treated at 60 °C, HisTrap; approx. 27 kDa by SDS-PAGE
Put plainly: purified protein. It counts as biochemical, Thermus scotoductus. The note with it: ssRNA oligonucleotide (5'-R20-FAM-3') as co-substrate, 10 mM MgCl2, pH 8.0, 60 °C, ATP 0.1-50 µM.

Turning to Ts-Clp1 (Thermus scotoductus SA-01), the Michaelis-Menten constant (Km) (commonly the substrate concentration at which the rate is half of its maximum) is on record as 2.5 µM.
